In patent publication US20140087995A1 (published 2014):
Numbered stars: 1 amine (or outer) side, 2 acyl side, 3 side chain; on linkers, the order of the positions; unused ones are H or OH. Bridge positions count the residues as written; N and C are the ends. Side chains are listed from the residue outwards. Ends that are not written are not given here. * marks the point of attachment. C20 diacid = O=C(O)CCCCCCCCCCCCCCCCCCC(=O)*; C18 diacid = O=C(O)CCCCCCCCCCCCCCCCC(=O)*; C16 diacid = O=C(O)CCCCCCCCCCCCCCC(=O)*; γGlu = O=C(O)[C@H](CCC(=O)[*:2])N[*:1]

Assays:
[1] = target: T1, human calcitonin receptor (human, UniProt P30988 25-474); test: SPA competition on BHK cell membranes, 125I-calcitonin as radioligand (Assay VII)
T1 construct: whole, on cells; Used as cell membranes; also called hCTR; hCT
T1 sequence (looked up): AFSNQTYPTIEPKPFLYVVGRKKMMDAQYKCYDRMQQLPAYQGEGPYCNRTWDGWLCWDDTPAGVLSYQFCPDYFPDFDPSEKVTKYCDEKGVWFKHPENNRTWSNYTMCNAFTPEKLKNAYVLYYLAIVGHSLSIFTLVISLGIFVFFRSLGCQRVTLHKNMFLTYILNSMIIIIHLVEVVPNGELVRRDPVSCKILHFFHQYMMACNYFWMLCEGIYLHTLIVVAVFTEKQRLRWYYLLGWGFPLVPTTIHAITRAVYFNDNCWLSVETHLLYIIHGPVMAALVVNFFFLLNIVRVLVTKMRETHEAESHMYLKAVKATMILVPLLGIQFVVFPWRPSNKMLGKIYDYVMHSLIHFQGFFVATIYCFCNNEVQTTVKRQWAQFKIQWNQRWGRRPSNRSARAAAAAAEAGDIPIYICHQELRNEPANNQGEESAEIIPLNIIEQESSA
Summary of the method: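 BHK hCTR membranes 35 ng/μL + SPA beads 0.05 mg/well; buffer 50 mM Hepes pH 7.4, 1 mM CaCl2, 5 mM MgCl₂, 0.1% OA, 0.02% Tween20. 120 min, 25° C., shaking. Scintillation count; IC50 by one-site binding competition.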

[2] = target: T1, human calcitonin receptor; test: ratio of hCTR IC50 to hAmylin-R IC50 (reference: human amylin receptor)
Summary of the method: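 Scintillation proximity competition binding on cell membranes at 35 ng/μL with SPA beads, in 50 mM Hepes pH 7.4, 1 mM CaCl2, 5 mM MgCl₂, 0.1% OA, 0.02% Tween20. Incubated 120 min at 25° C with shaking. IC₅₀ from one-site competition fit.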

B1: N^ε1-[(4S)-4-carboxy-4-(15-carboxypentadecanoylamino)butanoyl]-[Arg17,Pro21,Pro27,His34]-h-amylin (peptide)
peptide: K([γGlu-C16 diacid])CNTATCATQRLANFLRHSSPNFGAIPSSTNVGHNTY-NH2
modifications: disulfide 2-7; N-terminus assumed
SMILES: CC[C@H](C)[C@H](NC(=O)[C@H](C)NC(=O)CNC(=O)[C@H](Cc1ccccc1)NC(=O)[C@H](CC(N)=O)NC(=O)[C@@H]1CCCN1C(=O)[C@H](CO)NC(=O)[C@H](CO)NC(=O)[C@H](Cc1c[nH]cn1)NC(=O)[C@H](CCCNC(=N)N)NC(=O)[C@H](CC(C)C)NC(=O)[C@H](Cc1ccccc1)NC(=O)[C@H](CC(N)=O)NC(=O)[C@H](C)NC(=O)[C@H](CC(C)C)NC(=O)[C@H](CCCNC(=N)N)NC(=O)[C@H](CCC(N)=O)NC(=O)[C@@H](NC(=O)[C@H](C)NC(=O)[C@@H]1CSSC[C@H](NC(=O)[C@@H](N)CCCCNC(=O)CC[C@H](NC(=O)CCCCCCCCCCCCCCC(=O)O)C(=O)O)C(=O)N[C@@H](CC(N)=O)C(=O)N[C@@H]([C@@H](C)O)C(=O)N[C@@H](C)C(=O)N[C@@H]([C@@H](C)O)C(=O)N1)[C@@H](C)O)C(=O)N1CCC[C@H]1C(=O)N[C@@H](CO)C(=O)N[C@@H](CO)C(=O)N[C@H](C(=O)N[C@@H](CC(N)=O)C(=O)N[C@H](C(=O)NCC(=O)N[C@@H](Cc1c[nH]cn1)C(=O)N[C@@H](CC(N)=O)C(=O)N[C@H](C(=O)N[C@@H](Cc1ccc(O)cc1)C(N)=O)[C@@H](C)O)C(C)C)[C@@H](C)O
**Q.** What does the source list for B1?
**A.** IC50 [1]: 10.8 nM; Ratio hCT/hAmylin binding [2]: 18.5

B2: N^ε1-[(4S)-4-carboxy-4-(17-carboxyheptadecanoylamino)butanoyl]-[Arg17,Pro21,Pro27,His34]-h-amylin (peptide)
peptide: K([γGlu-C18 diacid])CNTATCATQRLANFLRHSSPNFGAIPSSTNVGHNTY-NH2
modifications: disulfide 2-7; N-terminus assumed
SMILES: CC[C@H](C)[C@H](NC(=O)[C@H](C)NC(=O)CNC(=O)[C@H](Cc1ccccc1)NC(=O)[C@H](CC(N)=O)NC(=O)[C@@H]1CCCN1C(=O)[C@H](CO)NC(=O)[C@H](CO)NC(=O)[C@H](Cc1c[nH]cn1)NC(=O)[C@H](CCCNC(=N)N)NC(=O)[C@H](CC(C)C)NC(=O)[C@H](Cc1ccccc1)NC(=O)[C@H](CC(N)=O)NC(=O)[C@H](C)NC(=O)[C@H](CC(C)C)NC(=O)[C@H](CCCNC(=N)N)NC(=O)[C@H](CCC(N)=O)NC(=O)[C@@H](NC(=O)[C@H](C)NC(=O)[C@@H]1CSSC[C@H](NC(=O)[C@@H](N)CCCCNC(=O)CC[C@H](NC(=O)CCCCCCCCCCCCCCCCC(=O)O)C(=O)O)C(=O)N[C@@H](CC(N)=O)C(=O)N[C@@H]([C@@H](C)O)C(=O)N[C@@H](C)C(=O)N[C@@H]([C@@H](C)O)C(=O)N1)[C@@H](C)O)C(=O)N1CCC[C@H]1C(=O)N[C@@H](CO)C(=O)N[C@@H](CO)C(=O)N[C@H](C(=O)N[C@@H](CC(N)=O)C(=O)N[C@H](C(=O)NCC(=O)N[C@@H](Cc1c[nH]cn1)C(=O)N[C@@H](CC(N)=O)C(=O)N[C@H](C(=O)N[C@@H](Cc1ccc(O)cc1)C(N)=O)[C@@H](C)O)C(C)C)[C@@H](C)O
**Q.** For B2, which IC50 [1] is on record?
**A.** 22.7 nM

**Q.** And the “Ratio hCT/hAmylin binding” value [2]?
**A.** 59.4

B3: N^-1-[(4S)-4-carboxy-4-(19-carboxynonadecanoylamino)butanoyl]-Gly[Arg1,Ala14,Arg17,Pro21,Pro27,His34]-h-amylin (peptide)
peptide: {C20 diacid-γGlu}-GRCNTATCATQRLAAFLRHSSPNFGAIPSSTNVGHNTY-NH2
modifications: disulfide 3-8
SMILES: CC[C@H](C)[C@H](NC(=O)[C@H](C)NC(=O)CNC(=O)[C@H](Cc1ccccc1)NC(=O)[C@H](CC(N)=O)NC(=O)[C@@H]1CCCN1C(=O)[C@H](CO)NC(=O)[C@H](CO)NC(=O)[C@H](Cc1c[nH]cn1)NC(=O)[C@H](CCCNC(=N)N)NC(=O)[C@H](CC(C)C)NC(=O)[C@H](Cc1ccccc1)NC(=O)[C@H](C)NC(=O)[C@H](C)NC(=O)[C@H](CC(C)C)NC(=O)[C@H](CCCNC(=N)N)NC(=O)[C@H](CCC(N)=O)NC(=O)[C@@H](NC(=O)[C@H](C)NC(=O)[C@@H]1CSSC[C@H](NC(=O)[C@H](CCCNC(=N)N)NC(=O)CNC(=O)CC[C@H](NC(=O)CCCCCCCCCCCCCCCCCCC(=O)O)C(=O)O)C(=O)N[C@@H](CC(N)=O)C(=O)N[C@@H]([C@@H](C)O)C(=O)N[C@@H](C)C(=O)N[C@@H]([C@@H](C)O)C(=O)N1)[C@@H](C)O)C(=O)N1CCC[C@H]1C(=O)N[C@@H](CO)C(=O)N[C@@H](CO)C(=O)N[C@H](C(=O)N[C@@H](CC(N)=O)C(=O)N[C@H](C(=O)NCC(=O)N[C@@H](Cc1c[nH]cn1)C(=O)N[C@@H](CC(N)=O)C(=O)N[C@H](C(=O)N[C@@H](Cc1ccc(O)cc1)C(N)=O)[C@@H](C)O)C(C)C)[C@@H](C)O
notes: 38 residues
**Q.** B3 was tested. Which IC50 [1] did it give?
**A.** 29.2 nM

**Q.** And the “Ratio hCT/hAmylin binding” value [2]?
**A.** 68.6

B4: N{-1}-[(4S)-4-carboxy-4-(19-carboxynonadecanoylamino)butanoyl]-Gly[Arg1,His14,Arg17,Pro21,Pro27]-h-amylin (peptide)
peptide: {C20 diacid-γGlu}-GRCNTATCATQRLAHFLRHSSPNFGAIPSSTNVGSNTY-NH2
modifications: disulfide 3-8
SMILES: CC[C@H](C)[C@H](NC(=O)[C@H](C)NC(=O)CNC(=O)[C@H](Cc1ccccc1)NC(=O)[C@H](CC(N)=O)NC(=O)[C@@H]1CCCN1C(=O)[C@H](CO)NC(=O)[C@H](CO)NC(=O)[C@H](Cc1c[nH]cn1)NC(=O)[C@H](CCCNC(=N)N)NC(=O)[C@H](CC(C)C)NC(=O)[C@H](Cc1ccccc1)NC(=O)[C@H](Cc1c[nH]cn1)NC(=O)[C@H](C)NC(=O)[C@H](CC(C)C)NC(=O)[C@H](CCCNC(=N)N)NC(=O)[C@H](CCC(N)=O)NC(=O)[C@@H](NC(=O)[C@H](C)NC(=O)[C@@H]1CSSC[C@H](NC(=O)[C@H](CCCNC(=N)N)NC(=O)CNC(=O)CC[C@H](NC(=O)CCCCCCCCCCCCCCCCCCC(=O)O)C(=O)O)C(=O)N[C@@H](CC(N)=O)C(=O)N[C@@H]([C@@H](C)O)C(=O)N[C@@H](C)C(=O)N[C@@H]([C@@H](C)O)C(=O)N1)[C@@H](C)O)C(=O)N1CCC[C@H]1C(=O)N[C@@H](CO)C(=O)N[C@@H](CO)C(=O)N[C@H](C(=O)N[C@@H](CC(N)=O)C(=O)N[C@H](C(=O)NCC(=O)N[C@@H](CO)C(=O)N[C@@H](CC(N)=O)C(=O)N[C@H](C(=O)N[C@@H](Cc1ccc(O)cc1)C(N)=O)[C@@H](C)O)C(C)C)[C@@H](C)O
notes: 38 residues; also called compound 99
**Q.** With B4 as the binder, how does the IC50 [1] read?
**A.** 35 nM

**Q.** What about the “Ratio hCT/hAmylin binding” value [2] of the same binder?
**A.** 100

B5: N^-1-[(4S)-4-carboxy-4-(19-carboxynonadecanoylamino)butanoyl]-Gly[Arg1,His14,Arg17,Pro21,Pro27,Pro34]-h-amylin (peptide)
peptide: {C20 diacid-γGlu}-GRCNTATCATQRLAHFLRHSSPNFGAIPSSTNVGPNTY-NH2
modifications: disulfide 3-8
SMILES: CC[C@H](C)[C@H](NC(=O)[C@H](C)NC(=O)CNC(=O)[C@H](Cc1ccccc1)NC(=O)[C@H](CC(N)=O)NC(=O)[C@@H]1CCCN1C(=O)[C@H](CO)NC(=O)[C@H](CO)NC(=O)[C@H](Cc1c[nH]cn1)NC(=O)[C@H](CCCNC(=N)N)NC(=O)[C@H](CC(C)C)NC(=O)[C@H](Cc1ccccc1)NC(=O)[C@H](Cc1c[nH]cn1)NC(=O)[C@H](C)NC(=O)[C@H](CC(C)C)NC(=O)[C@H](CCCNC(=N)N)NC(=O)[C@H](CCC(N)=O)NC(=O)[C@@H](NC(=O)[C@H](C)NC(=O)[C@@H]1CSSC[C@H](NC(=O)[C@H](CCCNC(=N)N)NC(=O)CNC(=O)CC[C@H](NC(=O)CCCCCCCCCCCCCCCCCCC(=O)O)C(=O)O)C(=O)N[C@@H](CC(N)=O)C(=O)N[C@@H]([C@@H](C)O)C(=O)N[C@@H](C)C(=O)N[C@@H]([C@@H](C)O)C(=O)N1)[C@@H](C)O)C(=O)N1CCC[C@H]1C(=O)N[C@@H](CO)C(=O)N[C@@H](CO)C(=O)N[C@H](C(=O)N[C@@H](CC(N)=O)C(=O)N[C@H](C(=O)NCC(=O)N1CCC[C@H]1C(=O)N[C@@H](CC(N)=O)C(=O)N[C@H](C(=O)N[C@@H](Cc1ccc(O)cc1)C(N)=O)[C@@H](C)O)C(C)C)[C@@H](C)O
notes: 38 residues
**Q.** Which results are given for B5?
**A.** IC50 [1]: 7.87 nM; Ratio hCT/hAmylin binding [2]: 36.2

**Q.** Which IC50 [1] does the source give for {C20 diacid-γGlu}-GRCNTATCATQRLAAFLRHSSPNFGAIPSSTNVGPNTY-NH2 (disulfide 3-8, 38 residues) here?
**A.** 3 nM

**Q.** What about the “Ratio hCT/hAmylin binding” value [2] of the same binder?
**A.** 26.5
